Target: human fibronectin (human) (UniProt P02751)
Test: dual-polarization interferometry (DPI); 100 μg/mL FN immobilised on an amine-functionalised AnaChip, sealing agent, then samples injected; Tris-HCl pH 7.4 with 0.1 M NaCl; layer thickness and mass resolved

Substance: bovine gelatin (G9382, type B)
- resolved layer mass after adsorption of gelatin (3.68 ng/mm^2 before): 3.86 ng/mm^2
- resolved layer thickness after adsorption of gelatin (11.60 nm before): 12.6 nm

— publication PMC9506415
